In article PMC3086075:

Target: recombinant class C acid phosphatase from Pasteurella multocida (Pasteurella multocida)
Assay: AUC

recombinant class C acid phosphatase from Pasteurella multocida (enzyme)
stoichiometry N: 2
